Measured values taken from the DeepSol protein solubility set.

assay: soluble on expression in E. coli; label from the status in PepcDB or PDB records

Sequence | soluble on expression in E. coli
MIPFDYERATDVDSAVATVTGDPRASFLAGGTNLVDHMKLGVARPHLLVDVSRLPLGDVVELPDGGLRIGAAVRNSDLAAHDVVRARYPMLSRALLSGASGQLRNLATTAGNLLQRTRCVYFQDVTTPCNKREPGTGCSAIGGYVRYHAILGASEHCVAVHPSDMAVAMTALDGVVVVRGADGERRIPLSEFYRLPGDRPDRDTVLAHGDLVTAVELPPPPSGNRSAYRKVRDRASFAFAVVSVAAELTIGDTSITSARVALGGVAHRPWRATLAEEVLVGSPPTEATYTEAAAAELAAAQPLPGNEFKVALTRRVLASVLRSLAEEARR | soluble
MTTNKPLISVIMPVYNGGFTIRQAVESVFCQNIPLELLVIDDGSTDQTSEVLSVYRNRPDFHYLKNPHNIGAAASRNRGVQEAHGQYVAFLDADDWWENGKLQIQLDTLHETGRVLCSTGRELMNYDGTPTGKYIPVKETVSYRDLLKHNSINCSSVLLLRDVAAEFPMEHDDSHEDYLTWLKILRKYGPAAGIDRPLLKYRMSKTSKSGDKKKSAIMTYKVYRYMGYSHMRCILYFISYAIHGFWKYR | not soluble
MTINYQFGDVDAHGAMIRAQAGSLEAEHQAIISDVLTASDFWGGAGSAACQGFITQLGRNFQVIYEQANAHGQKVQAAGNNMAQTDSAVGSSWA | not soluble
MIITDVEVRVFRTTTRRHSDSAGHAHPGPAHQVEQAMLTVRTEDGQEGHSFTAPEIVRPHVIEKFVKKVLIGEDHRDRERLWQDLAHWQRGSAAQLTDRTLAVVDCALWDLAGRSLGQPVYKLIGGYRDKVLAYGSIMCGDELEGGLATPEDYGRFAETLVKRGYKGIKLHTWMPPVSWAPDVKMDLKACAAVREAVGPDIRLMIDAFHWYSRTDALALGRGLEKLGFDWIEEPMDEQSLSSYKWLSDNLDIPVVGPESAAGKHWHRAEWIKAGACDILRTGVNDVGGITPALKTMHLAEAFGMECEVHGNTAMNLHVVAATKNCRWYERGLLHPFLEYDDGHDYLKSLSDPMDRDGFVHVPDRPGLGEDIDFTFIDNNRVR | soluble
MSLKLYYQQAMLLPKTKEILLRWEGVLSAGQRKASNAVVINLKGKMDMLLWAVAGSGKTEMMFEGMDWALRQGFRICVASPRVDVCLELLPRLKEAFPSMDIVCLYGDSKDNYQGEQFVIATTHQLIRFYETFQVIFIDEVDAFPYAKDPFLEYAVMKARTKEGSTIIITATPEKKWQEECVKGKRNFVKIPGRYHREGHHHHHH | soluble
MGKNFDEAALLKSLEGVPDAEKVQKLIKKLAESEKQNAELKIKVLDYDKVVKVKDLTEKKLERNNQILLRTEEAKSKLEELCRGLQKANHQTREEACAKMKKLEVERGLAVEQLKVTLKDIEKTMAEGRSKSDSLAEDNKKLSEKFSEIGHQYEEKMKVIDQQIQKKEKYWEEYGKTKDLEIKLLTAKLESASIQVKKSGMEKDELAKIMLEETARVGGALKTEKALREQVQEYSAKYSELTSCLSKSNEAFDKFKDEISRVNKKCMQVEKEGLSYKKKSDEANKKVLVLTMTNQEYAEKIATSDKKIQMLENLCRALRKGEQEPVTTAETTEAN | not soluble
MGSDKIHHHHHHLSADHNAFRRALTERWGKAFGEPVIHEDPRTRSLCFGAPGVQSSMRTSDPLELDLPYTRAMMSFQLFCPDPKDILIVGLGGGSLSKYCFHKFPSARVTTVEIDERVIALRDAFFIPPESERFRIVHADAAAYLPDKVGLADVILLDGFDASGLPASLSSQYFYDCCHAALRDEGVLVANLLSSDPRLGAHLDRIHRACHGKLFRTMARREGNTIAIGIRQATWPGWPDLYARAEAITASTGLDLCRYVKKMERHHRVEPVSEHPSSDTLAVEQNR | not soluble
MGSDKIHHHHHHMLKLCGFAASNYYNKVKLALLEKNVPFEEVLAWIGETDTTATPAGKVPYMITESGSLCESEVINEYLEAAYPQTPLLPRDPMQAGKVREIVTFLELYLELTARELYPEAFFGGKVSDNVKERQLKLLSRYVPAFAKLAKFSPYVAGDTFTLADCAAAVHLPLVSSCTKIIYGKDLLADLPVKEYLKTLSERPSVQKVNADRKANTELMLSRNK | not soluble
KDEIGVIGIDDAPFNKFDKEALIVGTYMRGNKLVDEISFKKIEKDGFDSTEKILKIVKDKHFTKINAIFLDGVTFGGFNIADIVKIYNETKIPVIAVMEKEPDLLKMKSALKKYFFDFPEKIEMLESFPKPEPFENIFIQCIGISFEDACKLIKKTRLRSKIPECLRISHLVGRGFLNME | not soluble
MPDHLQPTLFQDAGKTQASDTFQELLASIAARPKYLPDWPESHRALPNEILRSALFNCRNRNLPRMFLKEVEIAVIGDGQVIYRGEELRQDDELVWMHLMHLIKKSPLGECVEFTPYSFIKALGWPIKGQNYDRLRNCLSRMQATALRIQSKRLHSFVSISLIQKFLSRNERNESLTRWQVWVGKEMQLLFDEEFLTRVMWETRRSLPDGIASKLFGYWASHRKPYPVKVETLLKLCGSGMQTKHFKIELKRALDLLKQSGFLEAWELKDELVVVVRRH | not soluble
MGSDKIHHHHHHMPSLREQQHPLIRQLADCIEAAWHQHLDLSPYHLPDELGYVEGRLEGEKLTIENRCYQTPQFRKMHLELANIGNMLDILHCVMFPRPQYNLPMFGCDLVGGRGQISAAIADLSPIQLERTLPESYTTALAQLPVLNFSQPRELPEWGNIFSDFCIFVRPGSPEEEAMFLSRVREFLDIHCMQAIASHPVSVEQVTQNLAGQHNYCTKQQQNDKTRRVLEKAFGPVWAENYMTTVLFDLPT | not soluble
GMQTLNDIYLAYLDSLNHQAFDELGTFVDDNVEHNGRPFGLSGYRDMLVKDFADIPDLRFEAEILVSDATRLAARLFFDCTPKSIFMDLPVNGRRVQFCEHVFYDFEQAKIRRVWSVLDKVAIERQLG | soluble
MVKFIESELILLKKEVDEMWTLVYNQLDRAGEAVMTLDKELAQQVMVRERRVNAFELKIDSDIEDIIALYNPVAIDLRFVLAMLKINTNLERLGDFAEGIARFVIRCKEPVLDADLLARLRLGEMQAEVLSMLELAKRALNEENIEMATAVFGKDNLLDDINAEATGILADYIREHPETAHTCVDLVGVFRKLERSGDHITNIAEEIVFFIDAKVLKHSGKVDENYPKS | not soluble
MQLFDLSLEELKKYKPKKTARPDFSDFWKKSLEELRQVEAEPTLESYDYPVKGVKVYRLTYQSFGHSKIEGFYAVPDQTGPHPALVRFHGYNASYDGGIHDIVNWALHGYATFGMLVRGQGGSEDTSVTPGGHALGWMTKGILSKDTYYYRGVYLDAVRALEVIQSFPEVDEHRIGVIGGAQGGALAIAAAALSDIPKVVVADYPYLSNFERAVDVALEQPYLEINSYFRRNSDPKVEEKAFETLSYFDLINLAGWVKQPTLMAIGLIDKITPPSTVFAAYNHLETDKDLKVYRYFGHEFIPAFQTEKLSFLQKHLLLST | soluble
MSLTERKQRFLRRILTYYTLKRRESKWIIDYWLRNDSKLEQVHFVQNAMFAPKAMIITTYGFDADPFLFKKGEVKTTDPEKAYHDIRLTDEPLYIELNFQGMMMDDEYLSLLEENPFRPEVAVEPKLADAAMNFIAATVNRQEEERLVRLIDEALDARDKHRFQSLSDELRIIRSQLEGHHHHHH | soluble
DLTGKSIVGYRISGGLDIPIGYGLYVNPSLAFHSKGMKTNLEGVALGALGLNSSLKVKTHYIEIPVHLGYRLSLLNLVSVAVQAGPYFSYAIKGDGTVVRKDGQETTFDIYKDGLKEMINAKRFDVGLGAAAMVGYSNFYLLIGADFGLINTVKDIKPETKNLEATLKNTSFHVGLGIRL | not soluble
MSTDITPSSAPQCPDHIVFEHVTKEFRTRSGTVRALDDVSLAIKRGSISAVIGHSGAGKSTLVRLINGLETPTRGRVLVDGTDVSQLSDKAMRPLRADIGMIFQQFNLFGSRTIYDNVAYPLKLAHWKKADEKKRITELLSFVGLTSKAWDHPDQLSGGQKQRVGIARALATKPSILLADESTSALDPETTADVLSLLKRVNAELGVTVVVITHEMEVVRSIAQQVSVLAAGHLVESGSARQVFAHPQSETTQRFLATIIGQHPNGEEQARLQSENPHARLVDVSSVASHSFGDALARISHTGASFQIVHGGVIEVHDGSLGNYTVALSGPAQAVEQAVQILEEVSNSAAPTTSATVPTPTEEAHLEHHHHHH | not soluble
MDKSTPRRTYNLRSADRTTQNSPVSRQSLENHRNASVSLRKRSSTSSLQRIQSEFTFTDSATEERCSRKRRRTQQTHGLPFSSPDAINHQRAFHLDEHKVCSKLTTRLSIEVETSYGSFGKLPYDAVIHILTRTPYNLLSRMVMTSSCWNQTIGAYMRSGAFRRRWLLDIDIAPSSKPLDPFFDMGKLVRCLTINYEWKARLDCLKSFMTLAYESGALIAGLGKMIHAFTNRPDEDIVLEQIDDIVAMLLALVSGLKDDLSAVLFTPETDRELEELDNMPILREEMKLRKKTLNLFLNNGSSDPAHGVNKYFLSSLMKVFKTAHNALPTALFYLLFSPTTIQDDEEVIHWHRLSLLSVVTSEEAEELKPLSRAMCALIQCRNLKHVLPWSKNTIFNLMEEITTYPNPWSMSTFVALNVLEPELVPIGVVARMNRNHEDEAGDIICTMKMLLHRWDMDVYGVMESIIDTIKAVLKPYQRRILFDRCWDWHQRNIDEHRNQMGHFSDIRAEIESQIEVMPVLMKLL | not soluble
MEIERKFLVLNDDFKAKATAVHNIIQAYLVADERCTVRIRLCNDEAYLTIKGKTNEGGLSRSEYEYSVPFEEAKEMLTLCLPGYIMKQRYCVPHKGHVWEVDVFEGRHKGLVIAEVELATEDESIELPDWIGNEVTGDKRYYNSFIAGIQK | soluble
NFNSQNGVNKDEKDHLIERLYREISGLKAQLENMKTESQRVVLQLKGHVSELEADLAEQQHLRQQAADDCEFLRAELDELRRQREDTEKAQRSLSEIERKAQANEQRYSKLKEKYSELVQ | soluble
MKVEGRCHCGAIAYEAEVEPGTITVCHCADCQMQSGSVFRANISAPADTFVLLQGTPKEYLKIAASGARRMHAFCGNCGGPIYSCAAENPQSYSLRVGALEQRHALGRPLRQIWARRRFSWLSSLGDVEEFDGQP | not soluble
SLLPFKENRGLIFLDPPFEVKNEFQKLLEALKKIKLRVLNNTVLIWYPIKDLSLVCDVYHNYKNIGFKETMIIEYELLNSDKNMVKCGLMLINPPNIRGELEKLTEYLSGTLNLKFTYIYL | not soluble
MTVKIALLGFGTVASGVPFLLKENGGKINQSAHSDIKVAKVLVKDEDEKNRLLAAGNDFNFVTNVDDILSDQDITIVVELMGRIEPAKTFITRALEAGKHVVTANKDLLAVHGAELLEIAQANKVALYYEAAVAGGIPILRTLANSLASDKITRVLGVVNGTSNFMVTKMVEEGWSYDDALAEAQRLGFAESDPTNDVDGIDAAYKMVILSQFAFGMKIAFDDVAHKGIRNITPEDVAVAQELGYVVKLVGSIEETSSGIAAEVTPTFLPKAHPLASVNGVMNAVFVESIGIGESMYYGPGAGQKPTATSVVADIVRIVRRLNDGTIGKDFNEYSRDLVLANPEDVKANYYFSILALDSKGQVLKLAEIFNAQDISFKQILQDGKEGDKARVVIITHKINKAQLENVSAELKKVSEFDLLNTFKVLGE | soluble
